Target: the molecule itself
Experiment: SEC

B1: wildtype human SULT1B1 (enzyme)
chain: not shown
**Q.** For B1, which “stoichiometry N” value is on record?
**A.** The value was 2.

— paper PMC4982705 (Biochemical pharmacology, 2016)
